Results reported in patent publication US9284369B2, “Inhibition of angiogenesis” (Genentech, Inc., priority 2007, dated 2016).

B1: Bv8: recombinant Bv8 (Prokineticin-2) protein, PeproTech (protein)
chain: AVITGACDKDSQCGGGMCCAVSIWVKSIRICTPMGKLGDSCHPLTRKVPFFGRRMHHTCPCLPGLACLRTSFNRFICLAQK

Experiments:
[1] = system: Bv8 protein levels; experiment: Serum Bv8 in A673 tumor-bearing mice treated with cisplatin; assay type: in vivo, mouse; conditions: cisplatin 5 mg/kg, alone or in combination with anti-VEGF
Description: FIG. 6. […] Anti-Bv8 treatment is mostly effective when treatment is initiated early in tumor development. […] Mice were then treated with control, anti-Bv8, anti-VEGF or combination (anti-VEGF plus anti-Bv8) of antibodies. Tumor volume was measured as described. * indicates significant difference (p<0.05) in tumor volume between combination therapy vs. anti-VEGF monotherapy. c&d. […] Nude mice (c) and C57B1/6 (d) mice were implanted with EL4 cells and underwent treatment with control, anti-Bv8, anti-VEGF or the combination. Tumor volume and terminal tumor weight were measured as described. * indicates significant difference […] in tumor volume in control vs. each monotherapy or the combination therapy. Differences in tumor volume are also significant when comparing combination vs. each monotherapy. e. Cisplatin and anti-VEGF treatment increase Bv8 concentration in the serum. Beige nude mice were implanted with A673 cells and were treated with PBS, cisplatin (5 mg/kg) plus control antibody, cisplatin plus anti-Bv8, or cisplatin plus anti-VEGF or the combination cisplatin, anti-Bv8 and anti-VEGF. Serum Bv8 protein concentrations were measured by ELISA. f. Chemotherapy plus anti-VEGF and anti-Bv8 can effectively suppress tumor growth in established A673 tumors. […]

[2] = system: Lin- and CD11b+Gr1+ BM cells; experiment: Bv8 treatment of Lin- and CD11b+Gr1+ BM cells; assay type: cell-based, mouse
Description: Supplemental FIG. 3. a. Bv8 induces trans-well migration of CD11b+Gr1+ myeloid cells. Controls were PBS or media alone. b&c. Expression of Bv8 receptors in BMMNCs. Beige nude mice were implanted with A673, HM7, HPAC or Calu-06 cells as described. After 10 days, CD11b+Gr1+ myeloid cells were isolated from the BM and Taqman™ analysis was performed to investigate EG-VEGFRs expression in myeloid and non-myeloid (CD11b−Gr1−) subsets of tumor versus Matrigel™-implanted mice. […] Bv8 alters the fate of the progenitor population to myeloid cells (CD11b+Gr1+) and also inhibitors cell death in the Lin-population. The Lin-fraction, isolated from the BMMNCs of beige nude mice, was incubated with Bv8 for 5 days and the frequency of CD11b+Gr1+ cells was evaluated in a FACSCalibur machine. In addition, 7AAD staining was employed to measure the number of dead cells in each treatment. e. Bv8 induces clonogenic capacity of progenitor cells. Lin-population were treated with Bv8 or PBS for 5 days and were plated on methylcellulose (7500 cells per well) and were incubated in 5% CO2 and 37° C. for 15 days. […] L Bv8 is a survival factor for myloid populations. The CD11b+Gr1+ cells, isolated from the BMMNCs of beige/nude mice, were cultured in media and were treated with Bv8 (300 ng/ml) for 5 days. Cell death was measured in a FACSCalibur machine using 7AAD staining. g&h. […] Mice were implanted with A673 (e) or HM7 (f) tumors and were treated with anti-Bv8 or control antibodies as described. Treatment was stopped at day 7 after implantation, as indicated by arrow in the figure. i&j. Discontinued treatment of anti-Bv8 results in rebound of CD11b+Gr1+ cells to A673 (i) and HM7 (j) tumors.
However, the precise contribution of R1 vs. R2 in mediating Bv8 signaling in BMMNCs remains to be determined. […] To further characterize the effects of Bv8 on the cells of the hematopoietic system, both lineage depleted (Lin— that is devoid of CD11b+Gr1+ cells) and CD11b+Gr1+ cells were isolated from the BM of naïve mice and were treated with recombinant Bv8.

[3] = system: TIB42-TAEC cells; experiment: In vitro tube formation of tumor-associated endothelial cells; assay type: cell-based, mouse; conditions: Bv8 200 ng/ml, VEGF-A 100 ng/ml, 36 hours
Description: Tumor associated endothelial cells (TAECs) were isolated using a magnetic beads sorting system (Miltenyi Biotech), essentially as previously described (Hida et al., Cancer Res 64:8249-8255 (2004)). Briefly, TIB42 mouse lymphoma cells were injected into the dorsal lateral flanks of female beige nude mice. When tumors reached a diameter of […], they were excised, minced and then digested with collagenase II (Worthington Biochemical Corporation). Cell suspensions were than filtered using 100 μm to 40 μm meshes. CD31^+ cells were finally sorted using a FITC-CD31 antibody (BD Biosciences) according to the manufacturer's instructions. CD31+ cells were seeded in gelatin coated plates in the presence of EGM-2MV media (Cambrex). After 24 hs in culture CD31+ non-adherent cells were removed by washing several times with PBS.
For in vitro tube formation, TIB42-TAEC cells (passages 6-8) were starved for 5 hs in serum free medium. After this, cells were collected and resuspended in serum free medium supplemented with 5% BSA and treated with VEGF-A (100 ng/ml), Bv8 (200 ng/ml) or no addition (control). For specificity tests, Bv8, was incubated in the presence of anti-Bv8 Mabs (10 μg/ml). 5×10^5 cells were seeded in each well of a 24 well pre-coated with Matrigel™ (BD Biosciences) and tube formation was evaluated after 36 hours.

[4] = biological target: T1, PKR1/EG-VEGFR1 (Homo sapiens, UniProt Q8TCW9); experiment: Bv8 bioactivity assay, GeneBLAzer NFAT-CHO cells transfected with PKR1/EG-VEGFR1; assay type: cell-based; conditions: Bv8 0.2-200 ng/ml; VEGF-A up to 200 ng/ml
T1 construct: host or cells: GeneBLAzer NFAT-CHO cells
T1 sequence (Q8TCW9 whole entry): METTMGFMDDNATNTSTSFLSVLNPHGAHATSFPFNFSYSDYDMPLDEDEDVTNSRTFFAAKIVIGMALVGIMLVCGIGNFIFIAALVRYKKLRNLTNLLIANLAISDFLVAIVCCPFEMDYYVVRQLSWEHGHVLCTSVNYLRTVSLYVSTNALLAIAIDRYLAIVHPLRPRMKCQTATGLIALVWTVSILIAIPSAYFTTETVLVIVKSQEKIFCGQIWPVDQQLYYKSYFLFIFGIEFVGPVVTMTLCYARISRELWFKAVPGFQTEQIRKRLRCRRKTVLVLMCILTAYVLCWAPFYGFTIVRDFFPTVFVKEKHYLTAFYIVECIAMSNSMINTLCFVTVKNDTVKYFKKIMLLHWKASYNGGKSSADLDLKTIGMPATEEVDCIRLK
Description: The GeneBLAzer® NFAT-CHO cells were obtained from Invitrogen Corporation (Carlsbad, Calif.). Cells were stably transfected with PKR1/EG-VEGFR1 and grown in DMEM (high glucose) containing 10% dialysed serum, 0.1 mM NEAA, 2 mM GlutaMax™ (Gibco), 1 mM sodium pyruvate, 10 μg/ml Zeocin, 500 μg/ml hygromycin. Cells were plated into 96-well Viewplate (Packard) with 2.5×10^4 in […] in 1% DMEM overnight at 5% CO2, 37° C. On the following day, cells were treated with various column fractions that were concentrated with Microcon Centrifugal Filter Devices (Ultracel YM-3) from Millipore. 0.2-0.02 ng/ml hBv8 (Peprotech Inc.) prepared in 1% DMEM was used as a positive control. One hour later, media was removed and replaced with […] Hank's solution containing 0.1% BSA and 6× loading buffer containing 1 mM CCF4 (Invitrogen Corporation). Plates were incubated for 1.5 hr at room temperature in the dark and read on Wallac plate reader at excitation wavelength of 410 nm and emission wavelength of 450/520 nm. Negative controls were cells with no ligand added and control media alone. CHO cells were stimulated with recombinant human Bv8 or pooled fractions for 1 hr before adding the β-lactamase substrate CCF4. To assess the specificity of the column fractions, anti-Bv8 antibodies 2B9 and 3F1 were added at […].

[5] = system: A673, HM7, HPAC and Calu6 cells; experiment: Tumor cell proliferation assay (BrdU incorporation); assay type: cell-based, human; conditions: range of concentrations
Description: A673, HM7, HPAC and Calu6 cells were trypsinized and washed in media containing 0.5% FBS before seeding into 96-well black Viewplate (Packard Bioscience Company, Meriden, Conn.). Cells were incubated with various amounts of Bv8 (PeproTech Inc., Rocky Hill, N.J.) for 3 days. 10% FBS-containing media served as a positive control. Cell proliferation was assessed by BrdU incorporation using the Cell Proliferation ELISA kit (Roche).

[6] = system: CD11b+Gr1+ myeloid cells; experiment: Trans-well migration of BM CD11b+Gr1+ cells; assay type: cell-based, mouse; conditions: comparable to SDF-1
Description: BMMNCs were isolated from naïve Beige nude mice and the CD11b+Gr1+ population was sorted using CD11b microbeads (Miltenyi Biotech, CA) according to protocols provided by the manufacturer. An aliquot of the sorted cells were stained with anti-CD11bAPC and antiGr1-PE to ensure the purity (100%) of CD11b+Gr1+ cells. For migration assay, 2.0×10^5 cells were plated on the top chamber of transwells (Corning Incorporated, NY). The bottom chambers contained 600 μL of media (IMDM (Gibco BRL, CA) supplemented with BIT (Stem Cell Technologies, BC, Canada) containing human Bv8, control antibody, and murine recombinant VEGF in separate wells. Cells were incubated at 37° C. and 5% CO2 for 9 hrs and migration of CD11+b+Gr1+ cells was evaluated by counting the cells in the bottom chamber.

[7] = system: p44/42 MAPK; experiment: MAPK phosphorylation in TAECs (Western blot); assay type: cell-based, mouse
Description: TIB42-TAEC cells were starved for 6 hr in basal media supplemented with 0.5% BSA. Cells were then stimulated with human recombinant Bv8 (200 ng/ml; PeproTech), Complete Media (CM), VEGF (100 ng/ml; PeproTech) or BSA (0.5%). Cell extracts were collected at the indicated time-points. Western blot analysis of the extracts from TIB42-TAEC cells was performed using PhosphoPlus p44/42 MAPK™ antibody kit (Cell signaling).

[8] = system: human neutrophils; experiment: Chemotaxis of peripheral blood neutrophils; assay type: cell-based
Description: 10^6 cells were washed with HBSS containing 0.2% BSA before putting into transwell insert with 5 μm pore size (Corning Incorporated, Lowell, Mass.). In the lower chamber, media alone or media with various cytokines at various concentrations (maximum at 200 ng/ml) was added. After 3 hr at 37° C., cells in the lower chamber were transferred, mixed with 9 ml ZPAK solution and counted on Z2 Coulter Particle Count and Size Analyzer (Beckman Coulter, Fullerton, Calif.).

| Molecule | Bv8 level in the serum [1] | dead cells among CD11b+Gr1+ cells ([2]; Bv8 300 ng/ml, 5 days) | number of dead cells in Lin- population ([2]; Bv8 for 5 days, 7AAD) | CD11b+Gr1+ cells arising in Lin- population ([2]; Bv8 for 5 days, vs controls) | MAPK pathway in CD11b+Gr1+ cells ([2]; data not shown) | CFU colonies from Lin- cells ([2]; p<0.05 vs control-treated cells) | tube formation in Matrigel [3] | stimulation of PKR1/EG-VEGFR1 transfected CHO cells [4] | effect on proliferation of tumor cell lines [5] | effect on proliferation of tumor cell lines ([5]; listed as recombinant Bv8) | migration of BM CD11b+Gr1+ cells [6] | MAP kinase phosphorylation in TAECs [7] | concentration of maximal stimulation [8] [pM] | maximal stimulation of chemotaxis above control ([8]; 3 hr) [fold] |
| --- | --- | --- | --- | --- | --- | --- | --- | --- | --- | --- | --- | --- | --- | --- |
| N.N.[Cl][Pt][Cl] [cisplatin] | significantly (p<0.05) increased |  |  |  |  |  |  |  |  |  |  |  |  |  |
| B1 |  | fewer dead cells | significantly lower than controls | higher expression of CD11b+Gr1+ cells | activation of MAPK pathway in a time dependent manner | greater number of colonies | promoted tube formation | dose-dependent stimulation | neither the anti-Bv8 Mabs nor Bv8 itself had any detectable effects | failed to stimulate the proliferation | promoted migration | strong induction of MAP kinase phosphorylation | ~2 | ~3 |
